Data as given in PMC9706586.
pKd: −log10 of the molar value. Blank lines part the entries; values can stand above or below the substance they belong to.

Key:
[1] = biological target: CD20 (human) (UniProt P11836); assay: SPR; Biacore T200, CM5 chip with immobilised anti-His antibody, 20 °C; His-tagged receptor or antigen captured; serial dilutions of anti-CD20 X-body, IgG or IgA injected (120 s binding, 240 s dissociation, 30 µL/min); 1:1 binding kinetic model or steady-state affinity model
[2] = biological target: FcγRIIa^H131 (human) (UniProt P12318); assay: as above
Sequence of FcγRIIa^H131 (human) (P12318 34-217): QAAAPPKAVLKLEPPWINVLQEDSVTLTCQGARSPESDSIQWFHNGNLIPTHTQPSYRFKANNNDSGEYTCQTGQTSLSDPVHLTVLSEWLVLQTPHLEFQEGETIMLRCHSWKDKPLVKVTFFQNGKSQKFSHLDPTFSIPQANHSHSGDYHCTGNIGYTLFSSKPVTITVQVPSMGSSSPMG

[3] = biological target: FcγRIIIa^V158 (human); assay: as above
[4] = biological target: FcγRIIIa^F158 (human) (UniProt P08637); assay: as above
Sequence of FcγRIIIa^F158 (human) (P08637 17-208): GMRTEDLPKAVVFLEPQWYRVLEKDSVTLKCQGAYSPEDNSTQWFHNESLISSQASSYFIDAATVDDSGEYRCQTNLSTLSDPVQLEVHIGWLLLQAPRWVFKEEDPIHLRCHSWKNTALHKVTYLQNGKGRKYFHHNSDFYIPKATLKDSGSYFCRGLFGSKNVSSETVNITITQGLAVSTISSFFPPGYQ

[5] = biological target: FcRn (UniProt P55899); assay: as above
[6] = biological target: FcγRIIb (human) (UniProt P31994); assay: as above
Sequence of FcγRIIb (human) (P31994 43-217): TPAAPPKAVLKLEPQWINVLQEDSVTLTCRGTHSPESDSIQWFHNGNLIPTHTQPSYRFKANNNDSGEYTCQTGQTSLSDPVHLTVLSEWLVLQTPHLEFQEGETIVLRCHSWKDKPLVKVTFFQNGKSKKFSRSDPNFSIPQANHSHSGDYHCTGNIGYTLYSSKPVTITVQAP

[7] = biological target: CD89 (human) (UniProt P24071); assay: SPR; Biacore T200; CM5 chip with immobilised anti-His antibody captures the His-tagged receptor or antigen; serial dilutions of antibody injected (120 s binding, 240 s dissociation, 30 µL/min); 20 °C; 1:1 binding kinetic model or steady-state affinity model
Sequence of CD89 (human) (P24071 22-287): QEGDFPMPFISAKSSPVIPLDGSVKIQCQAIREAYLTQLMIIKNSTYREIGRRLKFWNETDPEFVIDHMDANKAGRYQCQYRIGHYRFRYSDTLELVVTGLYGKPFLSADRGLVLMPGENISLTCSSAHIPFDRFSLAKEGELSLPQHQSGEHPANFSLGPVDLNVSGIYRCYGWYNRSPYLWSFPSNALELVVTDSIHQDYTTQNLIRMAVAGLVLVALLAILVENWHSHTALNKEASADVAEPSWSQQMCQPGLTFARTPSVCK

[8] = biological target: FcγRI (UniProt P12314); assay: as above
Sequence of FcγRI (P12314 16-374): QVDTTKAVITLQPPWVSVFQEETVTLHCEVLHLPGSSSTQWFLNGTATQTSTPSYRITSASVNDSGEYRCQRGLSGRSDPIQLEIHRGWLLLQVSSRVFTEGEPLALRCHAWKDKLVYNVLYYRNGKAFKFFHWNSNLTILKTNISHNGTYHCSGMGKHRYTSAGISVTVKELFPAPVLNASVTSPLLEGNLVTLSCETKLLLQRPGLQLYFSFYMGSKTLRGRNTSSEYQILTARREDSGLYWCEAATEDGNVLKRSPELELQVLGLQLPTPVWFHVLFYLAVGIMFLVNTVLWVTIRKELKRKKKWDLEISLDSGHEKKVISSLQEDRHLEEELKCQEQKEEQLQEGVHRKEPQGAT

Sequence of CD20 (human) (P11836 whole entry): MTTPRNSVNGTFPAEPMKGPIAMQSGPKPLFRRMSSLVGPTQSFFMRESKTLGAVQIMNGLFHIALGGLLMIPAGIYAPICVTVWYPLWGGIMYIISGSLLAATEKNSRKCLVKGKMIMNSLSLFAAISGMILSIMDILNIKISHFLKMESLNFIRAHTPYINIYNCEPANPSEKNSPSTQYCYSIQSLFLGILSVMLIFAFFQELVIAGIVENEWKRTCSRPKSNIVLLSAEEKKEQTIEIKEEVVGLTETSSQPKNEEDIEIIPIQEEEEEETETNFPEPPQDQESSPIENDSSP

- pKd [1]: 8.17
Substance: Rituximab IgA (antibody)

- pKd [2]: 10.26
- pKd [3]: 10.22
- pKd [1]: 8.43
- pKd [4]: 10.18
- pKd [5]: 10.41
- pKd [6]: 11.56
Substance: Rituximab IgG (antibody)

- pKd [7]: 7.23
- pKd [8]: 6.57
Substance: trastuzumab IgA (antibody)

- pKd [8]: 6.95
Substance: trastuzumab IgG (antibody)
